In one test the target is T1, Biotinylated TEM1-Fc (murine, UniProt Q9HCU0 18-687 (human entry), limits assumed, biotinylated (sites not given)).
T1 construct: Ligand captured on the streptavidin sensor surface in the Biacore analysis; also called rTEM-1-Fc; not shown: Fc portion of a murine gamma heavy chain
T1 sequence (looked up): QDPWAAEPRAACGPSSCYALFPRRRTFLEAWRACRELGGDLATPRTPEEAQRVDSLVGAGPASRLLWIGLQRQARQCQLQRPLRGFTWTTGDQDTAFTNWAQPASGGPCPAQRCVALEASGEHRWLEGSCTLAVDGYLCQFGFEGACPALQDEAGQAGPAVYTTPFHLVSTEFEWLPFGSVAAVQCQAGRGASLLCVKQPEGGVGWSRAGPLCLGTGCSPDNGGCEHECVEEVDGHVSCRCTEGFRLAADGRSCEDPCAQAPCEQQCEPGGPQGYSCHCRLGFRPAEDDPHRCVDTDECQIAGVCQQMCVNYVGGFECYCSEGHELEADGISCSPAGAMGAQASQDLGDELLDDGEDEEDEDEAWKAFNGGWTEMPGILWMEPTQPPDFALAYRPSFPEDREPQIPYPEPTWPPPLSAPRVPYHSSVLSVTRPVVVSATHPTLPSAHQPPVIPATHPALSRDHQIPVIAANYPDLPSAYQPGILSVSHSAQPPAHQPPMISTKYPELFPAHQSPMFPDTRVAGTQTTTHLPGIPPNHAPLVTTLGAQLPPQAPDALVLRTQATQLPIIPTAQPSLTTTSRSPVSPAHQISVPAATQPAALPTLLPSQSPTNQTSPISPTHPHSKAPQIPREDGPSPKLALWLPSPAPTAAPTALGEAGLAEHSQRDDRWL
In words: Biacore SPR, biotinylated TEM1-Fc on streptavidin surface, antibody as analyte, 1:1 model. How it is done: Biacore analyses were also performed to determine the affinity of selected isolated TEM-1-specific rat antibodies. For these studies streptavidin-coated sensor surfaces were generated by injecting CAP reagent for 5 minutes at a flow rate of 2 μl/min. Biotinylated TEM1-Fc (10 μg/ml) was injected onto the streptavidin coated sensor surface for 20 sec (Fc2, RL=˜50 RU), 40 sec (Fc3, RL=˜100 RU), and 60 sec (Fc4, RL=˜150 RU) at a flow rate of 25 μl/minute. Rat anti-TEM-1 MAbs were injected for 300 seconds at 0.5 nM, 2 nM, 5 nM, 20 nM, and 50 nM concentrations and the dissociations were monitored for 30 minutes at a flow rate of 25 μl/minute. The sensor surface was regenerated by injecting a CAP kit regeneration solution for 120 sec at a flow rate of 25 μl/minute. The sensorgrams were analyzed using 1:1 binding model.
(SPR reads the build-up and loss of mass on a sensor chip optically.)

Test [1] deals with T2, TEM-1 in a native state on aortic smooth muscle cells (AoSMC) (UniProt Q9HCU0 18-757, limits assumed).
T2 construct: whole, on cells; also called tumor endothelial marker 1; endosialin
T2 sequence (looked up): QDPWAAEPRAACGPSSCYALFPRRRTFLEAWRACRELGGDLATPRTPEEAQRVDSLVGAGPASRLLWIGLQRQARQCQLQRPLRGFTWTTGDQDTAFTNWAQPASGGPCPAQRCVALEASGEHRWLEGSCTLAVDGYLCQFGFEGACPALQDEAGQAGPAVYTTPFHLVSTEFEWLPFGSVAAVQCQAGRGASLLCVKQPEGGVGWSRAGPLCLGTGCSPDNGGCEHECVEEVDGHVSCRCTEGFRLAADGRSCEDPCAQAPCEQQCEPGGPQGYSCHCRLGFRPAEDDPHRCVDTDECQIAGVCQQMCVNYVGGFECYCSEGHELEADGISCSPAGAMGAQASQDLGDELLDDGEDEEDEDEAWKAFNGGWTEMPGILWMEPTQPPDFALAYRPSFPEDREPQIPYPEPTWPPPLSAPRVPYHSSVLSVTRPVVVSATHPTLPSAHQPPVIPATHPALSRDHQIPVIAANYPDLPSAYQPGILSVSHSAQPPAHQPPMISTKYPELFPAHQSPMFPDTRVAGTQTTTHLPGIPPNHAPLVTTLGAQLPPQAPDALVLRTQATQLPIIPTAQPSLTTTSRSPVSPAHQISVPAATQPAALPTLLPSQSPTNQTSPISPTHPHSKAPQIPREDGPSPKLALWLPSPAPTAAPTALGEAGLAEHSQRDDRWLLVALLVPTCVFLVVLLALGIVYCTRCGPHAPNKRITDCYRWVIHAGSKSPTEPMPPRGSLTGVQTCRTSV
As to the kind of experiment: flow cytometry on AoSMC, 10 µg/mL antibody, FITC goat anti-rat secondary; cells only 2.5, secondary only 3.5. The method, then:
FACS analyses were also performed using aortic smooth muscle cells (AoSMC) and HUVEC cells. Cells were harvested using cell dissociation buffer (Invitrogen, #13151-014), washed twice in PBS and re-suspended at 50,000 cells/100 μL FACS buffer (PBS+2% FBS) in a round bottom 96 well plate. Cells were incubated for 1 hour on ice with the described rat TEM-1-specific antibodies at a concentration of 10 μg/mL, washed and then incubated with FITC-conjugated goat-anti-rat secondary antibodies (dilution 1:100) (Southern Biotech). Prior to analysis, cells were labeled with 7-AAD (BD Biosciences) to allow for the exclusion of nonviable cells. Cells were analyzed on an EasyCyte Flow Cytometer (Guava Technologies). The data in Table 6 indicate that all of the tested antibodies bind TEM-1 in a native state.
(A flow cytometer gives signals particle by particle.)

B1: Antibody 11D1 (antibody, V domains shown)
VH: EVQLVESDGGLVQPGRSLKLSCAASGFSFSDYYMAWVRQAPTKGLEWVATISYDGSGSYYRDSVKGRFTVSRDNAKTTLYLQMDSLRSEDTATYYCARGGGLDYWGQGVMVTVSS
VL: DNVLTQAPLAVSVTPGESASISCRSSKSLLSIEGINSLYWYLQKPGKSPQLLLFRMSNLASGVPDRFSGSGSETDFTLKISQVETEDVGVYYCAQFLEFPFTFGSGTKLEIK
notes: Rat monoclonal antibody from hybridoma, IgG2a/kappa; also called 11D1.G10.F8; ATCC PTA-12541
For orientation: Kd means the constant that tells how readily two partners part at equilibrium. Low readings indicate higher affinity, high ones lower affinity. The term koff denotes the rate constant with which the complex falls apart. For orientation: kon means the second-order rate constant of association. High values mean fast association, low ones slow association. In the test with Biotinylated TEM1-Fc, B1 yielded a Kd of 240 pM, a koff of 9.57e-05 s⁻¹ and an on-rate constant (kon) of 400000 M⁻¹ s⁻¹. In addition, the “Geometric mean of resulting FACS plot” value in test [1] worked out at 46.3.

B2: Antibody 7D3 (antibody, V domains shown)
VH: EVQLVESGGGLVQPKGSLKLSCAASGFDFKTYAMSWVRQAPGKGLDWIVTISTKGHNYATLYADSVKERFTISRDDSQSMVYLQMNNLKTEDTALYYCTVAGYNFDYWGQGVMVTVSS
VL: DVVLTQTPSILSATIGQSVSISCRSSQSLLDSDGNTYLYWFLQRPGQSPQRLIYLVSNLGSGVPNRFSGSGSGTDFTLKISGVEAGDLGVYYCMQATHAPFTFGSGTKLEIK
notes: Rat monoclonal antibody from hybridoma, IgG2a/kappa; also called 7D3.F5.E8.D8; ATCC PTA-12538
As to B2, in the test with Biotinylated TEM1-Fc, the Kd turned out to be 2.03 pM, the koff was found to be 1.34e-07 s⁻¹ and the kon was determined as 65900 M⁻¹ s⁻¹. The “Geometric mean of resulting FACS plot” value in test [1] turned out to be 63.4.

B3: Antibody 15F8 (antibody, V domains shown)
VH: EVQLVESGGGLVQPGRSMKLSCSASGFTFRNYYMAWVRQAPTRGLEWVASTGTGGDFTYYRDSVKGRFTISRDTAENTLYLQMDSLRSEDTATYYCARAYGYFDYWGQGVKVTVSS
VL: DIVLTQSPTTLSVTPGETVSLSCRASHSVGTNLHWYQQKPNESPRLLIKYVSQSNSGIPSRFSASGSGTDFTLNIKNVEFNDVSSYFCQQTQSWPLTFGAGTKLEIK
notes: Rat monoclonal antibody from hybridoma, IgG2a/kappa; also called 15F8.G6.B4; ATCC PTA-12540
In the test with Biotinylated TEM1-Fc, B3 came in with a Kd of 0.222 pM, a koff of 1.65e-07 s⁻¹ and a kon of 742000 M⁻¹ s⁻¹. In test [1], the “Geometric mean of resulting FACS plot” value was 72.5.

B4: Antibody 9A5 (antibody, V domains shown)
VH: EVQLVESGGGLVQPGRSMKLSCAASGFTFRNYYMAWVRQAPTRGLEWVASTGSGGDFTYYRDSVKGRFTISRDTAENTLYLQMDSLRSEDTATYYCARAYGYFDYWGQGVRVTVSS
VL: DIVLTQSPTTLSVTPGETVSLSCRASHSVGTNLHWYQQKTNESPRLLIKDASQSMSGIPSRFSASGSGTDFTLNIKNVEFDDVSSYFCQQTQSWPLTFGSGTKLEIK
notes: Rat monoclonal antibody from hybridoma, IgG2a/kappa; also called 9A5.G12.B10.F8.F6; ATCC PTA-12542
B4: in the test with Biotinylated TEM1-Fc, the Kd stood at 21.6 pM, the koff came to 1.84e-05 s⁻¹ and the kon was found to be 850000 M⁻¹ s⁻¹. Besides, the “Geometric mean of resulting FACS plot” value in test [1] turned out to be 89.9.

B5: Antibody 16D2 (antibody, V domains shown)
VH: EVQLVESGGGLVQPGRSMKLSCSASGFIFRNYYMAWVRQAPTKGLEWVASTGTGGDFTYYRDSVKGRFTISRDTAESTLYLQMDSLKSEDTATYYCARAYGYFDYWGQGVKVTVSS
VL: DIVLTQSPTTLSVTPGETVSLSCRASHSVGTNLHWYQQKTNESPRLLIKYVSQSNSGIPSRFSASGSGTDFTLNIKDVEFDDVSSYFCQQTQSWPLTFGSGTKLEIK
notes: Rat monoclonal antibody from hybridoma, IgG2a/kappa; also called 16D2.H12.E7.G9; ATCC PTA-12544
Turning to B5, in the test with Biotinylated TEM1-Fc, the Kd was found to be 0.0131 pM, the koff was 1.07e-08 s⁻¹ and the kon amounted to 810000 M⁻¹ s⁻¹. For the same molecule, in test [1], the “Geometric mean of resulting FACS plot” value turned out to be 98.

B6: Antibody 10H8 (antibody, V domains shown)
VH: QVQLKESGPGLVQPSQTLSLTCTVSGFSLTNYNIHWVRQPPGKGLEWMGAIWSGGSADYDSALKSRLSISRDTSKSQVFLKMDNLQTEDTAIYYCTRDQLGGWYFDFWGPGTKVTVSS
VL: DIVMTQTPSSQAVSAGEKVTMSCTSGQSLLYNENNKNYLAWYQLKPGQSPRLLIYWASTRESGVPDRFIGSGSGTYFTLTISSVQAEDLAVYYCQQYFRFPRTFGGGTKLELK
notes: Rat monoclonal antibody from hybridoma, IgG2a/kappa; also called 10H8.D7.E3; ATCC PTA-12546
Consider B6, for which the “Geometric mean of resulting FACS plot” value in test [1] was determined as 52.7.

B7: Antibody 14G3 (antibody, V domains shown)
VH: EVQLVEFGGGLVQPGRSLKLSCAASGFTFSDYNLAWVRQAPKKGLEWVATISYNGSEIYYRDSVKGRFTISRDNAKNTLYLQMDSLRSEDTATYYCARHWREYYSSYSSYVMDAWGQGASVTVSS
VL: DIVMTQTPSSQAVSAGAKVTLSCKSSQSLLYNKNKKNYLAWYQQKPGQSPKLLIYWASTRESGVPDRFIGSGSGTDFTLTISSVQAEDLAIYYCQQYYTFPTFGAGTKLELK
notes: Rat monoclonal antibody from hybridoma, IgG2a/kappa; also called 14G3.H4.F11.H7; ATCC PTA-12539
Regarding B7, the “Geometric mean of resulting FACS plot” value in test [1] was found to be 94.2.

B8: Antibody 15D10 (antibody, V domains shown)
VH: QVQLMESGPGLVQPSETLSLTCTVSGFSLTNYNIHWVRQPPGKGLEWMGLMWSGGNTDYNSALKSRLTISRDTSKNQVFLKMNSLQSEDTTTYYCARDSGYGEGRLDYWGQGVMVTVSS
VL: DIVLTQAPLSVSVTPGESASISCRSSKSLLGSKGINFLYWYLQKPGKSPQLLIYRMSNLASGVPDRFSGSGSETDFILKISKVETEDVGVYYCAQFLEYPNSFGAGTKLELK
notes: Rat monoclonal antibody from hybridoma, IgG2a/kappa; also called 15D10.G4.C12; ATCC PTA-12543
In the case of B8, in the test with Biotinylated TEM1-Fc, the Kd was 106 pM, the koff turned out to be 0.000105 s⁻¹ and the kon is 993000 M⁻¹ s⁻¹. Moreover, in test [1], the “Geometric mean of resulting FACS plot” value amounted to 86.4.

B9: Antibody 9G5 (antibody, V domains shown)
VH: EVKLEESGGGLVQPGMSVKLSCATSGFTFSDYWMEWVRQAPGKGLEWVAEIRNKLNNYVTNYGKPVRGRFTISRDDSKSIVYLQVNSIRSEDTGIYYCTRIQRVITTGEYFDYWGQGVMVTVSS
VL: DIQMTQSPSLLSASEGDRVTLSCKASQNIYKYLNWYQQKLGEAPKLLIYNINNLQTGIPSRFSGSGSGTDFTLTISSLQPEDVATYYCYQYNSGRAFGGGTKLELK
notes: Rat monoclonal antibody from hybridoma, IgG1/kappa; also called 9G5.F2.C1.F4; anti-TEM-1 clone 9G5
With B9, the “Geometric mean of resulting FACS plot” value in test [1] amounted to 57.4.

B10: Antibody 7H12 (antibody, V domains shown)
VH: EVQLVESGGGLVQPGRSMILSCAASGFTFSNFDMAWVRQAPKMGLEWVATITYDGSRTNYRDSVKGRFTISRDSAKNTLYLQMDSLTSEDTATYYCARHGSSYYWFFDFWGPGTMVTVSS
VL: ETVMTQSPTSMPTSIGERVTLNCKASQSVGINVDWYQQTPGQSPKLLIYTASNRHTGVPDRFAGSGSGRDFTLTISNVEAEDLVVYYCLQYGSLPFTFGAGTKLELK
notes: Rat monoclonal antibody from hybridoma, IgG1/kappa; also called 7H12.H5.E7; ATCC PTA-12545
In the test with Biotinylated TEM1-Fc, B10 gave a Kd of 0.0279 pM, a koff of 3.01e-08 s⁻¹ and a kon of 1.08e+06 M⁻¹ s⁻¹. Further, the “Geometric mean of resulting FACS plot” value in test [1] came to 59.9.

(Values after patent publication US20150337051A1 (MORPHOTEK, published 2015).)
